Experimental data published in paper PMC10845952, “Mass spectrometry and split luciferase complementation assays reveal the MecA protein interactome of Streptococcus mutans” (Microbiology Spectrum, 2024).

T1: MecA fused to the RenG N-terminal domain (1-155) (S. mutans, UniProt Q8DW33 1-240)
T1 construct: adaptor protein MecA; S. mutans UA159; source: S. mutans, expressed in live cells; not shown: RenG luciferase N-terminal domain (1-155), C-terminal, kept
T1 sequence: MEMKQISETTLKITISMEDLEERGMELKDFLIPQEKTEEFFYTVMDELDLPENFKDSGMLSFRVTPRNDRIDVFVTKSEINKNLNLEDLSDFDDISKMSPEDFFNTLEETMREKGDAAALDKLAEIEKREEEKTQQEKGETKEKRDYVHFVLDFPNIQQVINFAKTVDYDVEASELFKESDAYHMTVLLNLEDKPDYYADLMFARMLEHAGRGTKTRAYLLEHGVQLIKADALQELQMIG

B1: ClpC with the RenG C-terminal domain (156-314) fused to its N-terminus (natural protein, S. mutans, UniProt Q8DS14 1-813, looked up)
chain: MTDYSLKMQEVFRLAQFEAARFESSYLESWHVLLAMVEIDSSVAGLSFAEFEADVRFEDYQAAAILAIGKKPKSSSNDIMLLEQSHALKRTLAEAAAISQVTHAKEVGTEHVLFAMLLNPNLLATRILELVGFHAKDDGESIRLLDLRKVIERYAGFSKEDIKAIFEMRKPKKVKNSSSFSDLMKPPSVTGELADFTRDLTELARQGRLEPVIGREQEISRMVQILSRKTKNNPVLVGDAGVGKTALAYGLAQRIVDSAVPFELADMKVLELDMMSVVAGTRFRGDFEERMNQIIADIEADGHIVLFIDELHTIMGSGSGIDSTLDAANILKPALARGSLRTIGATTQEEYQKHIEKDAALSRRFAKVTIEEPSEEEAYQILLGLKKSYETYHHVIISDAAVMAAVKGAHRYLSGKNLPDSAIDLLDEASATVQGLVKKKAPAYLTDLDHALITNDYQLAKRLLKKEKKPLLKKRAEVKEEDILATLSKLSGIPVKKLTQADSKKYLNLERELHKRVIGQDDAVSSISRAIRRNQSGIRVGKRPIGSFMFLGPTGVGKTELAKALAEVLFDDESALIRFDMSEYMEKFAASRLNGAPPGYVGYEEGGELTEKVRNKPYSVLLFDEVEKAHPDIFNILLQVLDDGVLTDSRGRKVDFSNTIIIMTSNLGATALRDDKTVGFGAKSFSQDYKAMESRILEELKKVYRPEFINRIDEKVVFHNLGQEDIRHIVKIMVAPLIAHLADQGITLKFQPSALKHLALAGYDAEMGARPLRRTLQTEVEDKLAELILSGKLASGQTLKIGIQKEKLKFDIV
notes: also called N-ClpC
B2: MnmG fused to the RenG C-terminal domain (156-314) (natural protein, S. mutans, UniProt Q8DRS6 1-631, looked up)
chain: MTHEFTENYDVIVIGAGHAGVEASLATSRMGCKTLLATINLEMLAFMPCNPSIGGSAKGIVVREIDALGGEMGKNIDKSYIQMRMLNTGKGPAVRALRAQADKALYARNMKHTVEQQENLTLRQSMIDEILVEDGKVIGVRTATNQKYSAQAVIVTTGTALRGEIILGELKYSSGPNNSLASVTLADNLRDLGLEIGRFKTGTPPRVKANSIHYDETEIQPGDKKANHFSFMSKDEDYLKDQIPCWLTYTNQSSHDIINKNLYRAPMFSGIVKGVGPRYCPSIEDKIVRFADKDRHQLFLEPEGRETEEVYIQGLSTSLPEDVQKDVVHSIKGLENAEMMRTGYAIEYDIVLPHQLRATLETKKISGLFTAGQTNGTSGYEEAAGQGIVAGINAALKIQGKPELILKRSDAYIGVMIDDLVTKGTLEPYRLLTSRAEYRLILRHDNADLRLTEIGHQVGLVNEERYMRFQIRKNQFDNELTRLSSIKLKPVAEINKRIEELGFKPLTDALTAKEFMRRPEINYAIATSFVGPAAESLDEKVIELLETEIKYEGYINKALDQVAKMKRMEEKRIPKNIDWDAIDSIATEARQKFKKINPETIGQASRISGVNPADISILMVYLEGKNRSRTR
notes: not shown: RenG luciferase C-terminal domain (156-314), C-terminal, kept
B3: GltB fused to the RenG C-terminal domain (156-314) (natural protein, S. mutans, UniProt Q8CWY8 1-478, looked up)
chain: MADPFGFLKYERKDNPYRPVNERIKDFEELQTTLSVEERQKQAARCMNCGIPFCHEGTFYGGGRAVSGCPNDNLIPEWNDLIYKGDFRRAFERLTRTNPLPEMTGRVCPAPCEKACTEGLNGSGVTIHDNERFIIDNAFEEGWVADSGRPIERTGFKVAVVGSGPAGLSAAWRLNQLGHSVTVFERSDRFGGLLMYGIPNMKLDKKIVQRRIDTMASIGINFVANTEIGRDITAEELLEKFDRVILATGASVPRDLDIPGRDLKGIRFAVDFLTETTKNLLDSDTHELPPLLEGKHVLVIGGGDTGNDCIGTAVRLGAASVRQLEITPQLPEKRLPTNPWPQYPMINRTGYGQEEADFVQQTDLTDYITSTVEFLGENGQVTAVKTIKVGPGFKAIEGTEEVIKADLVLLAMGFTGAEKALFDQFRVECVYDDYSTRNEKVFVAGDARRGPSLVIWGIREGRKTAEKIDQNLRMMVTE
B4: AlaS fused to the RenG C-terminal domain (156-314) (natural protein, S. mutans, UniProt Q8CWY0 1-872, looked up)
chain: MKQLTSAQVRQMWLDFWKSKDHAIEPSANLVPVNDPTLLWINSGVATLKKYFDGSVIPENPRITNAQKAIRTNDIENVGKTARHHTMFEMLGNFSVGDYFRDDAIKWGFELLTSPEWFDLPKDKLYMTYYPDDKDSYNRWIECGVDPSHLIPIEDNFWEIGAGPSGPDTEIFFDRGEDFDPDHIGVRLLAEDIENDRYIEIWNIVLSQFNADPAVPRSEYKELPHKNIDTGAGLERLVAVMQGAKTNFETDLFMPIIREIEKLSGKTYDQDGDNMSFKVIADHIRSLSFAIGDGALPGNEGRGYVLRRLLRRAVMHGRRLGINEPFLYKLVPTVGKIMESYYPEVLEKQDFIEKIVKREEETFARTIDAGSNMLDQLLADLKAADKDTLEGKDIFRLYDTYGFPVELTEELAEDAGFKIDHQGFQAAMKEQQERARANVVKGGSMGMQNETLSNITEKSTFNYEKEALDSSLSVIIADNKRIEAVSEGQVLLVFSETPFYAEMGGQVADHGLIKNDKGDTVARVTDVQKAPNGQALHTVDVLGSLSVGTTYHLEIDHERRNRVMKNHTATHLLHAALHNVIGNHATQAGSLNEVEFLRFDFTHFEAVTPEELRQIEEEVNQQIWKAIPVTTIETDLDTAKEMGAMALFGEKYGKNVRVVSIGDYSVELCGGTHLKNTSEIGIFKIVKEEGIGSGTRRILAVTSKEAFEAYRQEEDILKEIATTLKAPQMNQVANKVASLQDQLHKLQKENAELKEKAAAVAAGDIFKDVKEVNGLRYIASQVEVADAGALRTFADKWKQKDYSDVLVLVASIGKKVNVLVASKSKDIHAGNLIKALAPIVSGRGGGKPDMAMAGGSDASAIKDLIAAVAENL
notes: Alanine-tRNA ligase, AlaS; S. mutans UA159; not shown: RenG luciferase C-terminal domain (156-314), C-terminal, kept
B5: TopA fused to the RenG C-terminal domain (156-314) (natural protein, S. mutans, UniProt Q8DUD3 1-705, looked up)
chain: MTSKTTTTVKKTSKKRATPKKNLVIVESPAKAKTIEKYLGRSYKVVASVGHIRDLKKSSMSIDFDNNYEPQYINIRGKGPLINSLKKEAKNAKQIFLASDPDREGEAISWHLAHILDLDLKGKNRVVFNEITKDAVKNAFVEPRQIDMDLVDAQQARRVLDRIVGYSISPILWKKVKKGLSAGRVQSVALKLIIDRENEIKAFKPEEYWSIDGFFKKGNKKFQANFYGLDNKKTKLKSNDDVKKVLTRIKNDDFLVDKVEKKERKRNAPLPYTTSSLQQDAANKINFRTRKTMMVAQQLYEGIRLGSNGQQGLITYMRTDSTRISPVAQNDAANYITEHFGAEYSKHGNHVRNASGAQDAHEAIRPSNVNHTPESIAKYLDKDQLKLYTLIWNRFVASQMTAAVFDTVKVNLTQNGVLFIANGSQIKFKGYMAVYNDSDKTKVLPEMIKGETVKKISANPEQHFTQPPARYSEASLIKTLEENGVGRPSTYAPTLETIQKRYYVRLVSKRFEPTELGEIVNSLIIEFFPDIVDVKFTAEMESKLDEVEIGKEEWQKVIDQFYKPFEKEVIKAEEQMEKIQIKDEPAGFDCDVCGHPMVIKLGRYGKFYACSNFPDCHNTKAITKEIGVICPICQKGQVIERKTKRNRIFYGCDRYPDCDFTSWNKPIGRDCPKSGDFLVEKKIRGGGKQVVCSNEECDYKEKAVK
B6: UvrA fused to the RenG C-terminal domain (156-314) (natural protein, S. mutans, UniProt P72481 1-943, looked up)
chain: MQDKLIIRGARAHNLKNIDVEIPRDKLIVMTGLSGSGKSSLAFDTIYAEGQRRYVESLSAYARQFLGNMDKPDVDSIDGLSPAISIDQKTTSKNPRSTVGTVTEINDYLRLLYARVGIPYCKNGHGAITASSVEQIVDQVLILPERTRMQILAPVVRRKKGQHKAVFDRIQKDGYVRVRIDGDIMDVAEVPELSKNKMHNIEVVVDRLVQKDGIRGRLFDSIEAALHLGDGYVIIDTMDDHELIFSEHYSCPVCGFTVPELEPRLFSFNAPFGSCPTCDGLGIKLEVDLDLVIPDENKTLREGTLAPWNPISSNYYPQLLEQAMNAFGVDMDKPWKDLSDEDKKLVLHGSGDTAFHFHYQNDFGGVRDIDIPFEGIISNISRRYHETNSDFTRNVMRSYMNELPCATCHGYRLNDQALSVRVGGKEGLNIGQVSELSIADHLSLLTHLELSENEKTIATPIVKEIKDRLTFLNNVGLNYLTLSRSAGTLSGGESQRIRLATQIGSNLSGVLYILDEPSIGLHQRDNDRLISSLKKMRDLGNTLIVVEHDEDTMMAADWLVDVGPGAGALGGEIVASGTPRQVAKNKKSITGQYLSGKKKIPVPLDRRKGSGRFIEIKGAAENNLQNINVKFPLGKFIAVTGVSGSGKSTLVNSILKKVIAQKLNRNSEKPGKYKSISGIEHIDRLIDIDQSPIGRTPRSNPATYTGVFDDIRDLFAQTNEAKIRGYKKGRFSFNVKGGRCEACSGDGIIKIEMHFLPDVYVPCEVCHGTRYNSETLEVHYKDKNIAEILNMTVNDAAEFFAPIPKIARKIRTIKDVGLGYVTLGQPATTLSGGEAQRMKLASELHKRSTGKSFYILDEPTTGLHTDDIARLLKVLERFVDDGNTVLVIEHNLDVIKTADHIIDLGPEGGVGGGQVIATGTPEQVAEMTESYTGQYLKGRLNEK
notes: Excinuclease ABC subunit, UvrA; S. mutans UA159; not shown: RenG luciferase C-terminal domain (156-314), C-terminal, kept
B7: IlvD fused to the RenG C-terminal domain (156-314) (natural protein)
chain: not shown
notes: Dihydroxy-acid dehydratase, IlvD; S. mutans UA159; not shown: RenG luciferase C-terminal domain (156-314), C-terminal, kept
B8: PheT fused to the RenG C-terminal domain (156-314) (natural protein, S. mutans, UniProt Q8CWX2 1-801, looked up)
chain: MLVSYKWLKELVDIDVPSHELAEKMSTTGIEVEGVDVPAEGLSKLVVGHVLSCEDVPETHLHLCQVDTGEEESRQIVCGAPNITAGIKVIVALPGARIADNYKIKKGKIRGMESLGMICSLQELGLPDSIIPKEYSDGIQILPEDAVPGESIFPYLDLDDEIIELSITPNRADALSMRGVAHEVAAIYDKSVHFEDKVLTESDKKAADLIKVAIASDKVLTYKARVVENVTIKPSPQWLQNLLMNAGIRPINNVVDVTNYVLLYFGQPMHAFDLDKFEGKDILARQAKAGEKLVTLDGEARDLIEEDLVITVADKPVALAGVMGGAATEIDASSKNVVLEAAVFDGKSVRKTSSRLNLRSESSSRFEKGVNYADVVKALDFAAAMLTELADGTVLAGQVSAGAVPTDDIQVSTSLDYVNVRLGTDLVFSDIESVFARLGFGLSGNDEKFTVSVPRRRWDISIQADLVEEIARIYGYDKLPTTLPEAAGTVGELTKTQKLRRKIRNLAEGSGLSEIISYALTTPEKAVAFTPNPTKITELMWPMTVDRSALRQNIVSGMLDTIAYNVARKSNNLALYEIGKVFEQTADPKKDLPKEIDTFAFALTGLVTEKDFQTAATPVDFFYAKGVLEAILAKLEITVQFVATKEMANMHPGRTALIERDGQVIGYLGQVHPQTAKLYDIPETYVAEVNLNALEAALKSDLVFEDITKFPAVSRDIALLLSEKVSHQDILDAIAASGVKRLIKVKLFDVYAGEKLGVGKKSMAYSLTFQNPNDNLTDEEVAKYMEKITSALTEKVGAEVR
notes: Phenylalanine-tRNA ligase subunit beta, PheT; S. mutans UA159; not shown: RenG luciferase C-terminal domain (156-314), C-terminal, kept

Molecular target: T1, MecA fused to the RenG N-terminal …
Assay: split reporter (BiFC, NanoBiT)
Conditions: partners not purified

Binder | relative binding affinity (%)
B1 | 55.2 ± 4.16%
B2 | 8 ± 0.33%
B3 | 7.45 ± 0.28%
B4 | 5.5 ± 0.29%
B5 | 8.64 ± 0.36%
B6 | 7.86 ± 0.3%
B7 | 13.1 ± 0.61%
B8 | 17.9 ± 0.77%
